The nature of the series: label from the status in PepcDB records.

This is an account of results in a protein production outcome set (Wang et al. 2014).

Consider “MSERPVQSKLNNALNILKQGDLRGSYAELERLLRDDLENAEIDYTLKGVRFWEDKLEKAKKASTPLERAEMMISQWKPFLAYIHRQGEEKESIIYSLKCAVFTIALEFYADLFNEESELPDAEPYRKIGLCYKVLGNYERALDFLRYAAEIDKNSGSVLADLADCYALYGEIKFAKAFFREAFFIDPEGIELQFLESEIICRLINRVYNLGYRVEDIADWLPIYGVIDGVFNVKRELRAFEVGQLKQNIFLMEGEVQNASQEQKHKLVPRLINHYFWLIDHYVSVNESKSKIDDLLLRIKVLDQNIYNCYMR”, for which the protein production entry is listed as “failed”. On to “MSESLDFSPYLERWALQPDGEPFATHSSRLLPVRHRGAAAMLKISSAEEERFGHVLLNWWDGQGAARVLAYDHQALLMERATGGRSLLEMVRRGDDDEATRILCQAIERIHAPRPGPLPELTPLERWFDSLYAAERRYGGLYVDCANAARYLLETAREQRPLHGDIHHGNVLDFGERGWQVIDPKRLYGERGYDYANLFTNPDAKTAQAPGRFERQLEIVIAASGLQRRRLLQWILAWTGLSAAWFDEDGSREETEAELAIARLALANLARTPAQ”, for which the protein production entry is “failed”. For “MSESPTAGRASLAPLREFITGLSALLDEQPGEARILREGGALLARLVARDDWLPDAFAQPHPEYYQQMLLHCDSAERFSIVSFVWGPGQRTPIHDHTVWGLIGMLRGAEYSQPFVLDGSGRPVLHGEPTRLEPGHVEAVSPTVGDIHRVHNAYDDRVSISIHVYGANIGGVRRSVYTEAGERKPFISGYSNPYLPNPWDRSKDSAAS”, the protein production result was “not failed”.

Turning to “MSETERTLVIIKPDAVVRGLIGEIISRFEKKGLKIVGMKMIWIDRELAEKHYEEHREKPFFKALIDYITKTPVVVMVLEGRYAVEVVRKMAGATDPKDAAPGTIRGDFGLEVSDAICNVIHASDSKESAEREISLFFKPEELFEYPRAADWFYKKGI”, the protein production result was “not failed”.

Take “MSETPERGLGSRAGVVLVDRYRLDERIGVGGMGEVWRATDILLSRPVAVKLLHLAQVSDPVSQQRFRTEAQITAALSHPNIAQVYDYGEQDGFSFLVMELITGESLSAIIKRNPGLDPDITLDVVDQAAQALSAAHANGVIHRDIKPGNLLVTEDGTVKLTDFGIARGNESVTLTQTGMVMGTAQYISPEQVSGKPASPLSDIYALGIVAYECLAGHPPFTADTPLALALAHSREPPPPLPDSVPPAVRELVECMLAKDPQERPSSAAEVSQWAQRLRAALNGGDATEALGLVSATAATAVVPAQPGPPTGDSTPVDGPHSGAQAQTWPPPQGKDSDRVAERSAAPNSRLNLPVVFALIATVGAVAVGIFLVGLLGKEPGTNGTPTSHRSVVPTLSRSPDTTENITTDSQTPVPDNPGGQLPPLNDEPEESYSPAPHPEPTTPPQSEYPSPPGDGADSTPDPGEEPGGPSDEDDADGGGAAPGGPTGGTGEESRGSTPP”: the protein production result was “failed”. The result for “MSEVILDIMNNELVSSLILRELIQYRRRFTHSTKSVSEEESQVTQVQLPRIRTFVDEGRRVELILPAFPVKSPSPYKVLGRMPDMAERLSLIFLNSLCQRIQLYYPPGAHIRICSDGHVFGDLIGTSDETINTYQDEIENLLHELGAVHLSVFNLKDVENMAALTADYGHLRQRLVEDYAESAEEIKEQLMQSEEGLQLYRSITRFLYEDSLRPDYTGSNAALQKDAKKRACGVIQRSWAWGNLLAENFPDAIRLSIHPQPADSLKLGIHMMPTKDDWLTPWHGVAANVNGQFVLMKNTDAQQLAGEVVEIRGTPSHYLVKQSDVA” reads “failed”; that for “MSEVKKTKVHLISGFLGTGKTTALKSLMAQKDPNEKWVIIVNEFGEIGIDGAVLSDNGIPVAEIAGGCLCCTAGPQMGVTVQKMLRDAKPDRLMIEASGLAHAASVIDELKAKPLDSLLEIGAVFTVVDPRQFINPDYAQQALYKDQIGICDVLAASKTDLCTPEQLAEFHDKAAKLFPPKAKVVEVQNAQLDIQWLDIPVVEKSRYRLKALPDNTMGFQSQGFTFPAGRDFNGEKLTNFFNDLPKMTEGLVRAKGVFQVLGTWVWLNWVDGQWGANQVSWRRDSRFELIAKSFDADLIEQKLKDALELEHHHHHH”, “not failed”; that for “MSEVQITFRKAREQDLMTYFNWANDEVTRKNSFGTNKIDLKTHTEWFLKKISSPDSLLLVFEDAAKIPVGQVRIECGEEEAVIGISIDSAFRGKSLSAFMIDSACTEYFRNFTKPIAAHIKATNTASVKAFEKAGFILKEEYTVDQELRFILLRQHV”, “failed”. Consider “MSFFKLKENNTSFKTEVIAGLTTFLAMVYIIPVNSSIVGNTGMPIEALITATALITIVASAFNAFFANTPVAMSVGMGLNAYFTFAVCLGQNIAWQSALGAVFISSIIFLILSFTHFRLWVIRNIPKDLRLAICAGIGCFIAFLGLSQMGVIMHNKDTLVSIGNFKSPHVLFGIFTLALIIFFWAIKLLGAFILGVLASSIIAWIFHLDNASFPVQIFSWPNFSMENGLGAIFLQLDIKSALNITMIPIILTFFITQLFDSIGTITGVGERGKIFDDPKNGEKKLSKTLMADATGSALGAMTGTSTVTAFVESTTGVESGGRTGLTALVVAICFAFTLFLLPLFKAIPANAIYPVLVMVGILMFMEVKNIDFKDSAIAVASFFTIIMMPFTYSITTGFAFGFLSYLLVRIFKREWDKINLGIIVLSLLSLGNFLLMALQ”, for which the protein production entry was “failed”. The result for “MSFIVCMSVLGVLLMLLALTSSYLRWMPVTTSAVCLAFGFGIGPLGLDIINLDFKQSREWLECLTEVAVLFSLFGTGIKLRLPLNCKAWHSAYWLAGPVMLATIAGVSVAAHYIFAIDWGVALLLGAMLSPTDPVLAGMVQVNSAQDQDRLRFGLSGEAGLNDGTAFPFVIFAMLYLSSGGVTGDWAQHWLLKDLIWAVPAGLLIGFGMGRGVGHLMIFLRIKNADSTTSPNDFLALALIALAYVVAEGFGAFGFLSVFAAGFGLRQAEMRVTRSELPSEHVAQPVLGHMTAALDQGTVAKADDLSDSQLAAGVMMGDMLAFGSLVERAMEVLLITLLGAALASYWDWRAIGLGLALFCVIRPASVWLLVSQKLLNARQKALVGWFGIRGIGSLYYLCFALSHGLADDVGNVVIGMTLSVVALSILLHGISIQPLLERYERSTAANPDK” reads “failed”; that for “MSFVKKTKNFFGLDGEADPYMEHSDAYYDEPRYEPAPAYSAPRYEEPIYASARPRAARPMPTHIVPVRLLTYSDAAIKVGDPFRDGDAVVFDMSDMHKGEAKRIIDFAAGLCFALRGQMRKLDGRIFALVPESASVDENDLKHAAGLIHLEHHHHHH”, “failed”; that for “MSGADTKKKLVGRHKRVAFMDVAGDGKTYTRMTGFTSMSESKNASEYSRHYVDEESERTDVVGYAPSNDYEFDRYTNDLVQQKISEITDDELLGSDAQVSIVVVDLFDIKTDTPNTCVARKRDWSVVPDNSGDGTDALIYKGSLKANGEKIKGTATTTDNWQTCTFAAD”, “failed”. The result for “MSGGPVKTPFLSFIIPAYNEEQRLPSYLERVIGFFAGQSYSFEIVVVDDGSSDGTAALVKALMAQHSCLRLEALDRNRGKGFAVKTGMSAAKGQLRVFADADGATPVEEIRRLLDAREQGADIAIGSRAMRSDECIVQGRVHRKIMGTVFNGLIRALAVRGIHDSQCGFKLFTASAAEDIFPRQRITGFGFDVELLFLARRLGYVVVEVPVNWSDVEGTKVRLVRDSFRMLGEVLRIRFTNLTGGYGDIPGKTLEHHHHHH” reads “failed”; that for “MSGIIATYLIHDDSHNLEKKAEQIALGLTIGSWTHLPHLLQEQLKQHKGNVIHVEELAEHEHTNSYLRKKVKRGIIKIEYPLLNFSPDLPAILTTTFGKLSLDGEVKLIDLTFSDELKKHFPGPKFGIDGIRNLLQVHDRPLLMSIFKGMIGRNIGYLKTQLRDQAIGGVDIVKDDEILFENALTPLTKRIVSGKEVLQSVYETYGHKTLYAVNLTGRTFDLKENAKRAVQAGADILLFNVFAYGLDVLQSLAEDDEIPVPIMAHPAVSGAYSASKLYGVSSPLLLGKLLRYAGADFSLFPSPYGSVALEKEEALAISKYLTEDDASFKKSFSVPSAGIHPGFVPFIVRDFGKDVVINAGGGIHGHPNGAQGGGKAFRTAIDATLQNKPLHEVDDINLHSALQIWGNPSYEVKL”, “not failed”; that for “MSGKTSITSRSDEFQRQIDHKEMPRDHQIERHTHIHTTRYRGGSLVEEVIEKLERFKVRTVNILVGGEDDEQKK”, “failed”. In the case of “MSGLAQRSDDPWLAALPAAVLYGAWAAYANQDGGLAGMGVAALLQGAASLLATRFGLYLLQCLGRRHGLAQRQAPLLVVLLLTAPMAALHWLSGTPHPLASVAPSFVIGWLYFALWARRRPGRRQASGA”, the protein production result is listed as “failed”. The value for “MSGLVTGREIVQTARDENVPFMGASIAYYAIASIVPLLALLLAALSTFGGTVTLLELLRTVLSENGQVILTELLENTRGHGATGTLSLVLVVWSGSKVFRSLSVAFTEVYGEVTDISLPAQLVRSAVVMGVLLGAVVFLSATSVALTYVKFQVPYPTLVGNVAAFAALGVAFVPIYYVLPPVKTSLTHVAPGALFAAAGWITIQVGFFYYAGTAGRYAAYGYLGALLLFVTALYLAAIVLLLGVVVNATLDW” was “failed”; that for “MSGMSAAARWTLIASVIAGVSYVASWGLTLPPGVETAWKGAGVGLLAIHAALRARSLDGWLLAAVMALGTGGDVLLETHGLTVGAISFLLGHVVASGLYLRHRNAVSLAPLALIPVVVAVSFLLPTDRAGAPGIALYSLFLAVMAAMALMSRFPFKTVGLGALMFVVSDLLIFGRLGPLPDNLATGLGVWGLYYFGQLLICLGVAGALAHPSTDLPGEGRGPDSA” was “failed”; that for “MSGPERLLTRAPTHRPERPRLTLVSRRVMRTIGWLLLLIGGLAGGLSSAAGQPSAPPDTIRGDAVAPSPAPASGDLAGQGGALEATPLFYVAEDAATLHNRSGLNAPVTRLAMRTPVRRLSCEADWCRVRTDGGTTGYVAADALSNVWIRVSKRKRRVYVYRGAELAHAFEADMAYNAFADKKRNGGKTRPDHWRTPEGTFYVVHKNPQSEFYKALVLNYPKVEDARRGLDAGLISRAQYEAIRQAQQEHRMPPMGTDLGGWIEIHGDGTGDATAWTQGCVAIRNGAMDVIWEQVRVGTPVLIE” was “failed”. The value for “MSGPRAGFYRQELNKTVWEVPQRLQGLRPVGSGAYGSVCSAYDARLRQKVAVKKLSRPFQSLIHARRTYRELRLLKHLKHENVIGLLDVFTPATSIEDFSEVYLVTTLMGADLNNIVKCQAGAHQGARLALDEHVQFLVYQLLRGLKYIHSAGIIHRDLKPSNVAVNEDCELRILDFGLARQADEEMTGYVATRWYRAPEIMLNWMHYNQTVDIWSVGCIMAELLQGKALFPGSDYIDQLKRIMEVVGTPSPEVLAKISSEHARTYIQSLPPMPQKDLSSIFRGANPLAIDLLGRMLVLDSDQRVSAAEALAHAYFSQYHDPEDEPEAEPYDESVEAKERTLEEWKELTYQEVLSFKPPEPPKPPGSLEIEQ” was “failed”. “MSGQTFEKIGGMFLDKQRKEGKSKATLDKTAYHLKLANHDFGKKPITAITAPMILRTLRKVEAKGNYETAHRLRARIGSVFRYAVASGLAETDPTYALRDALIRPTRQHLEHHHHHH”: the protein production result was “failed”. The result for “MSGRHLMYLDYLVPSWHEIESRVIAMVGYQSGGQFRTSLNEEVASLGLNLRRIEAVRTAFYHAEWQAAHMLRQRFADLDINSIIDELLRVVQQMAMIVVGSTITGGLLGATVGAFAGGAGTIPLAGAGAVMGLKVSGWILGALGLASIAEFFVEGLPRIGG” reads “failed”.
